Test results: US20240067748A1

What was measured:
[1] = molecular target: human Trop2 on cells (human) (UniProt P09758); assay: flow cytometry on BxPC-3 tumor cells (second panel of the table); negative control
[2] = molecular target: monkey Trop2 on CHO-K1 cells (monkey); assay: flow cytometry on CHO-K1/monkey Trop2 cells (second run); negative control
[3] = molecular target: monkey Trop2 on CHO-K1 cells (monkey); assay: flow cytometry on CHO-K1/monkey Trop2 cells; negative control
[4] = molecular target: human Trop2 on cells (human) (UniProt P09758); assay: flow cytometry on BxPC-3 tumor cells; negative control

Sequence of monkey Trop2 on CHO-K1 cells (monkey) (A0A2K5 entry or part of it limits assumed): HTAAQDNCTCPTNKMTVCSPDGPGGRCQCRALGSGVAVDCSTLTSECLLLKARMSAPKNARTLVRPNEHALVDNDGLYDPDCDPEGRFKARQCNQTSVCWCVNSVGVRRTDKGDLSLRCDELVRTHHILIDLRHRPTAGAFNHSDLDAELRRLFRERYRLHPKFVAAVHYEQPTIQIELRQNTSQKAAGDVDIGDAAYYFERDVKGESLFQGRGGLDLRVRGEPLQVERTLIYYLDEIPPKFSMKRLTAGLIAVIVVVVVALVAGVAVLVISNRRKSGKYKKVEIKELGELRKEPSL
Sequence of human Trop2 on cells (human) (P09758 27-323): as the sequence (A0A2K5 entry or part of it limits assumed) above, with V36M, E46K, N67S, V204I, V266M, S272T counted along it

hIgG1 (antibody) gave a Maximum MFI value [1] of 670 MFI, a Maximum MFI value [2] of 109 MFI and an EC50 [3] of 1890 nM. For the same substance, the Maximum MFI value [3] was 277 MFI and the Maximum MFI value [4] was 77 MFI.
